From the nanobody polyreactivity screen of Harvey et al. (2022) come the findings set out here.

A short description of this series: yeast display, Sf9 membrane polyspecificity reagent, FACS + sequencing; frameworks hold sequencing errors. The gist of the method:
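Nanobodies came from a synthetic yeast display library in Saccharomyces cerevisiae BJ5465, induced with galactose for 36–48 hours and stained for 1 hour at 4 °C with 10% biotinylated, detergent-solubilized Sf9 membrane reagent. Cells were enriched on streptavidin microbeads and then FACS-sorted, with low and high (top ~1%) gates set on anti-HA fluorescence for expression and streptavidin fluorescence for reagent binding. Each polyreactivity label reflects the gate a clone came from. Genes were amplified by colony PCR, sequenced by MiSeq 2 × 250 and filtered by CDR length.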
For “QVQLVESGGGLVQAGGSLRLSCAASGSIFNPYAMGWYRQAPGKERELVAAISSTGSTYYADSVKGRFTISRDNAKNTVYLQMNSLKPEDTAVYYCAADWYWYWFSTYDYWGQGTQVTVSS”, the “polyreactivity (PSR sort gate)” value is reported as “low polyreactivity”.

Take “QVQLVESGGGLVQAGGSLRLSCAASGSIFNQYAMGWYRQAPGKERELVAAISSGSTYYADSVKGRFIISRDNAETTVYLQMYSLKPEDTAVYYCNAYYVNYVSNYESWGQGTQVTVSS”: the “polyreactivity (PSR sort gate)” value is “high polyreactivity”.

In the case of “QVQLVESGGGLVQAGGSLRLSCAASGSIFNRNAMGWYRQAPGKERELVAVISWTGDGTYYADSVKGRFTISRDNAKNTVYLQMNSLKPEDTAVYYCAARWYVQFYHRPVSKRYYWGQGTQVTVSS”, the “polyreactivity (PSR sort gate)” value is listed as “high polyreactivity”.

Take “QVQLVESGGGLVQAGGSLRLSCAASGSIFNRYAMGWYRQAPRKERELVAAITAGGSSTYYADSVKGRFTISRDNAKNTVYLQMNSLKPEDTAVYYCNAVWWHPKDYDYWGQGTQVTVSS”: the “polyreactivity (PSR sort gate)” value was “low polyreactivity”.

Turning to “QVQLVESGGGLVQAGGSLRLSCAASGSIFNRYTMGWYRQAPGKETELVAAISRGDTTYYADSVKGRFTISRDNAKNTVYLEMNSLKPEDTAVYYWAKAYDTTLTYNYWGQVTQVTVSS”, the “polyreactivity (PSR sort gate)” value is listed as “low polyreactivity”.

Take “QVQLVESGGGLVQAGGSLRLSCAASGSIFNSNAMGWSRQAPGKERELVAVISWSDGSTRYADSVKGRFTISRDNAKNTVYLQMNSLKPEDTAVYYCNADLVYYYRQEVDYWGQGTQVTVSS”: the “polyreactivity (PSR sort gate)” value is given as “low polyreactivity”.

“QVQLVESGGGLVQAGGSLRLSCAASGSIFNTYVMGWYRQAPGKERELVAAITYSAGGDTYYADSVKGRFTISRDNAKNTVYLQMNSLKPEDTAVYYCAAEYTYLDAYGSYDYWGQGTQVTVSS”: the “polyreactivity (PSR sort gate)” value is on record as “low polyreactivity”.

In the case of “QVQLVESGGGLVQAGGSLRLSCAASGSIFNWYAMGWYRRAPGKERELVAAISQSGTRTFYADSVKGRFTISRDNAKNTVYLQMNSLKPEDTAVYYCNTVKAGYDGYDRDYWGQGTQVTVSS”, the “polyreactivity (PSR sort gate)” value was “high polyreactivity”.

Take “QVQLVESGGGLVQAGGSLRLSCAASGSIFNYNAMGWYRQAPGKERELVAGITTSGGSTYYADSVKGRFTISRDNAKNTVYLQMNSLKPEDTAVYYCAAYDYISSTYFLDDYWGQGTQVTVSS”: the “polyreactivity (PSR sort gate)” value is “low polyreactivity”.

In the case of “QVQLVESGGGLVQAGGSLRLSCAASGSIFNYNMGWYRQAPGKERELVAAITSSGGSTYYADSVKGRFTISRDNAKNTVYLQMNSLKPEDTAVYYCAAPISRSAGWDSYDYWGQGTQVTVSS”, the “polyreactivity (PSR sort gate)” value was “low polyreactivity”.

For the sequence “QVQLVESGGGLVQAGGSLRLSCAASGSIFNYYAMGWYRQAAGKERELVAVITSGGSTYYAESVKGRFTISRDNAKYSVYLQMNSLKPEDTAVYFCAADDGTGEASVSSNLYDYWGQGTQVTVSS”, the “polyreactivity (PSR sort gate)” value was “low polyreactivity”.

For the sequence “QVQLVESGGGLVQAGGSLRLSCAASGSIFNYYTMGWYRQAPGKERELVAAISYRGGRTYYADSVKGRFTISRDNAKNTVYLQMNSLKPEDTAVYYCNAVTRIYEVDYWGQGTQVTVSS”, the “polyreactivity (PSR sort gate)” value is “high polyreactivity”.

On to “QVQLVESGGGLVQAGGSLRLSCAASGSIFNYYTMGWYRQAPGKERELVARITSGDSTYYADSVKGRFTISRDNAKNTVYLQMNSLKPEDTAVYYCNAGLYRRRSTYYRQAYNYWGQGTQVTVSS”, for which the “polyreactivity (PSR sort gate)” value is “high polyreactivity”.

Regarding “QVQLVESGGGLVQAGGSLRLSCAASGSIFPANAMGWYRQAPGKERELVAGISERGSSTYYAVSVKGRFTISRDNAKNTVYLQMNSLKPEDTAVYYCAADLVGRYWSSTHNWARGDYWGQVTQVTVSS”, the “polyreactivity (PSR sort gate)” value is reported as “low polyreactivity”.

Consider “QVQLVESGGGLVQAGGSLRLSCAASGSIFPAYDMGWYRQAPGKERELVAAIDRGGSTYYADSVKGRFTISRDNAKNTVYLQMNSLKPEDTAVYYCATGYWNTSVYVRLEKRDYWGQGTQVTVSS”, for which the “polyreactivity (PSR sort gate)” value is listed as “low polyreactivity”.

On to “QVQLVESGGGLVQAGGSLRLSCAASGSIFPDNTMGWYRQAPGKERELVAAIDGRGGTTYYADSVKGRFTISRDNAKNTVYLQMNSLKPEDTAVYYCNAGVWTYWHIEMDYWGQGTQVTVSS”, for which the “polyreactivity (PSR sort gate)” value is recorded as “low polyreactivity”.

On to “QVQLVESGGGLVQAGGSLRLSCAASGSIFPDNTMGWYRQSPGKDRELVGAIDGRGGTTYYADSVKGSFTISRDNAKNTVYLQMNSLKPEDTAVYYCARDIGHSASYDYWGQGTQVTVSS”, for which the “polyreactivity (PSR sort gate)” value is “low polyreactivity”.

For “QVQLVESGGGLVQAGGSLRLSCAASGSIFPDYALGWYRQPPGKERELVAAITWRDDSTYYADSVKGRFTSSRDKAKNTVYLQMNSLKPEETAVYYCNASAMDPLYAKDDYWGQGTQVTVSS”, the “polyreactivity (PSR sort gate)” value is “low polyreactivity”.

On to “QVQLVESGGGLVQAGGSLRLSCAASGSIFPDYAMGWYRTAPGKERELVAAISWDGGRTYYADSVKGRFTISRDNAKNTVYLQMNSLKPEDTAVYYCYWYDYWGQGTQVTVSS”, for which the “polyreactivity (PSR sort gate)” value is “high polyreactivity”.

With “QVQLVESGGGLVQAGGSLRLSCAASGSIFPDYGMGWYRQAPGKEREFVAAIDWSGTSTYYADSVKGRFTISRDNAKNTVYLQMNSLKPEDTAVYYCAARWDKSPFKLYDSWGQGTQVTVSS”, the “polyreactivity (PSR sort gate)” value is reported as “low polyreactivity”.

Turning to “QVQLVESGGGLVQAGGSLRLSCAASGSIFPEYAMGWYRQAPGKERELVAAITTSGGSTYYADSVKGRFTISRDNAKNTVYLQMNSLKPEDTAVYYCAVEYLVYLDYTYDYWGQGTQVTVSS”, the “polyreactivity (PSR sort gate)” value is given as “low polyreactivity”.

For “QVQLVESGGGLVQAGGSLRLSCAASGSIFPFNAMGWYRPAPGKERELVAAITSGGSTNYADSVKGRFTISRDNAKNTVYFQMNSLKPEDTAVYYCAADWRYWRWAFDYWGQGTQVTVSS”, the “polyreactivity (PSR sort gate)” value is “high polyreactivity”.

For the sequence “QVQLVESGGGLVQAGGSLRLSCAASGSIFPFNAMGWYRPAPGKERELVAAITSGGSTNYADSVKGRFTISRDNAKNTVYLQMNSLKPEDTADYYCAADWRYWRWAFDYWGQGTQVTVSS”, the “polyreactivity (PSR sort gate)” value was “high polyreactivity”.

For “QVQLVESGGGLVQAGGSLRLSCAASGSIFPFNAMGWYRQAPGKERELVAAISVNGGTTYYADSVKGRFTISRDNAKNTVYLQMNSLKPEDTAVYYCNARRAYLYYVSYRYGYWGQGTQVTVSS”, the “polyreactivity (PSR sort gate)” value is listed as “low polyreactivity”.

As for “QVQLVESGGGLVQAGGSLRLSCAASGSIFPFNAMGWYRQAPGKERELVAAITRSGGSTYYADSVKGRFTISRDNAKNTVYLQMNSLKPEDTAVYYCANDPEWPLPDFYYWGQGTQVTVSS”, the “polyreactivity (PSR sort gate)” value is “low polyreactivity”.

For “QVQLVESGGGLVQAGGSLRLSCAASGSIFPGNAMGWYRQAPGKERELVAAIDFSGGSTYYADSVKGRFTISRDNAKNTVYLQMNSLKPEDTAVYYCAASVYPYYGYGYWGQGTQVTVSS”, the “polyreactivity (PSR sort gate)” value is given as “low polyreactivity”.

“QVQLVESGGGLVQAGGSLRLSCAASGSIFPGNAMGWYRQAPGKERELVASINWSGGSTYYADSVKGRFTISRDNANNTVYLQMNSLKPEDTAVYYCNADPGYYDYDYWGQGTQVTVSS”: the “polyreactivity (PSR sort gate)” value is on record as “low polyreactivity”.

Take “QVQLVESGGGLVQAGGSLRLSCAASGSIFPGYAMGWYRPAPGKERELVAAITDSGVSTYYADSVKGRFTISRDNAKNTVYLQMNSLKPEDTAVYYCARDNWQWYPSTWYDYWGQGTQVTVSS”: the “polyreactivity (PSR sort gate)” value is listed as “high polyreactivity”.

As to “QVQLVESGGGLVQAGGSLRLSCAASGSIFPGYPMGWYRQAPGKERELVAAISRSGGITYYADSVKGRFTISRDNAKNTVYLQMNSLKPEDTAVYYCAKTLPSNGHYDYWGQGTQVTVSS”, the “polyreactivity (PSR sort gate)” value is recorded as “low polyreactivity”.

On to “QVQLVESGGGLVQAGGSLRLSCAASGSIFPGYTMGWYRQAPGKERELVAAISWSDGSTYYADSVKGRFTISRDNAKNTVYLQMNSLKPDDTAVYYCNRDYRGPYYYWGQGTQVTVSS”, for which the “polyreactivity (PSR sort gate)” value is listed as “high polyreactivity”.

For the sequence “QVQLVESGGGLVQAGGSLRLSCAASGSIFPHNAMGWYRPAPGKERELVAAISSGGSTNYADSVKGRFTISRDNANNTVYLQLNSLKPEDTAVYYCAKSIDGWYWRRRRYDYWGQGTQVTVSS”, the “polyreactivity (PSR sort gate)” value is “low polyreactivity”.

For the sequence “QVQLVESGGGLVQAGGSLRLSCAASGSIFPHNAMGWYRQAPGKERELVAAITTIGGSTYYADSVKGRFTISRDNAKNTVYLQRNSLKPEDTAVYYCAADCATVLGFYTYDYWGQGTQVTVSS”, the “polyreactivity (PSR sort gate)” value is “low polyreactivity”.

Take “QVQLVESGGGLVQAGGSLRLSCAASGSIFPHYAMGWSRQAPGKERELVSAISSGGRTYYADSVKGRFTISRDNAKNTVYLQMNSLKPEDTAVYYCAARRIARKGYGYWGQGTQVTVSS”: the “polyreactivity (PSR sort gate)” value is given as “high polyreactivity”.

For the sequence “QVQLVESGGGLVQAGGSLRLSCAASGSIFPHYAMGWYRQSPGKETELVAAISRSGTSTYYADSVKGRFTISRDNAKNTVYLQMNSLKPEDTAVYYCAALSNNGVRYYYWGQGTQVTVSS”, the “polyreactivity (PSR sort gate)” value is listed as “high polyreactivity”.

For the sequence “QVQLVESGGGLVQAGGSLRLSCAASGSIFPKYAMGWYRQAPGKERELVAAISRGGGSTYYADSVKGRFTISRDNAKYTVYLQMNSLKPEDTAVYYCAAQYYSLQWEYYYWGQGTQVTVSS”, the “polyreactivity (PSR sort gate)” value was “high polyreactivity”.

As to “QVQLVESGGGLVQAGGSLRLSCAASGSIFPLYAMGWYRQAPGKERELVADITVSGGSTYNADSVKGRFTISRDNAKNTVYLQMNSLKPEDTAVYYCNADDRSPFPDYWWYPYDYDYWGQGTQVTVSS”, the “polyreactivity (PSR sort gate)” value is given as “low polyreactivity”.

As to “QVQLVESGGGLVQAGGSLRLSCAASGSIFPLYDMGWYRPAPGKERELVAGISSGGSTNYADSVKGRFTISRDNAKNTVYLQMNSLKPEDTAVYYCAATGSSRYGYWGQGTQVTVSS”, the “polyreactivity (PSR sort gate)” value is on record as “low polyreactivity”.

For “QVQLVESGGGLVQAGGSLRLSCAASGSIFPNNDMGWYRQAPGKERELVAAITTRGTSTYYADSVKGRFTISRDNAKNTVYLQMNSLKPEDTAVYYCAVGRRGDSAGGVAYYYWGQGTQVTVSS”, the “polyreactivity (PSR sort gate)” value is on record as “low polyreactivity”.

On to “QVQLVESGGGLVQAGGSLRLSCAASGSIFPPNAMAWYRQAPGKEREFVAAITESGGSTRYADSVKGRFTISRDNAKNTVYLQMNSLKPEDTAVYYCAARSYRYSTHGTYRYYYWGQGTQVTVSS”, for which the “polyreactivity (PSR sort gate)” value is “high polyreactivity”.

Consider “QVQLVESGGGLVQAGGSLRLSCAASGSIFPPNAMGWYRQAPGKERELVAAISRRGGSTYYADSVKGRFTISRDNAKNTVYLQMNSLKPEDTAVYYCAARGGQMEYWGQGTQVTVSS”, for which the “polyreactivity (PSR sort gate)” value was “high polyreactivity”.

With “QVQLVESGGGLVQAGGSLRLSCAASGSIFPPYAIGSYRQAPGKERELVATITIRGGSTYYADSVKGRFTISRDNAKNTVYLQMNSLKPEDTAVYYCAADYTKYYRRYYYWGQGTQVTVSS”, the “polyreactivity (PSR sort gate)” value is “high polyreactivity”.
